Data published in patent publication US20150025225A1 (SHIONOGI, published 2015).
Positions count from the first letter of the chain named. Like-named read-outs stand apart in the source and are kept apart here.

T1: Baboon EL-C2 tag (baboon, UniProt Q9Y5X9 21-500 (human entry), limits assumed)
T1 chain: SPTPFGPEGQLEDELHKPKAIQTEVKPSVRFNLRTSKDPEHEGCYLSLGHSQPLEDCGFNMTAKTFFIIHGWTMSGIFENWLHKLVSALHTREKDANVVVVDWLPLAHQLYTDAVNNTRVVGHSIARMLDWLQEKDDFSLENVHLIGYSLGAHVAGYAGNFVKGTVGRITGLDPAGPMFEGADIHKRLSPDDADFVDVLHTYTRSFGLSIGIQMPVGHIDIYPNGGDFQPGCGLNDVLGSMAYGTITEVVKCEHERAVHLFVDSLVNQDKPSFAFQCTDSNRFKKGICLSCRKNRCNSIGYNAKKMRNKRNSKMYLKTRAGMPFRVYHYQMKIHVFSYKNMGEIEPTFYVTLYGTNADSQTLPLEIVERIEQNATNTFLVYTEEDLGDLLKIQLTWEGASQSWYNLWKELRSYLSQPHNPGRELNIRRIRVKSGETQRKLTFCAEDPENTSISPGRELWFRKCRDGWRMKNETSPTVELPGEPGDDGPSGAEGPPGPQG

T2: cynomolgus monkey EL-C2 tag (cynomolgus monkey, UniProt Q9Y5X9 21-500 (human entry), limits assumed)
T2 chain: T1 chain with E12A, E141G

T3: human EL[331-459]-mouse EL-C2 tag (human/mouse chimera, UniProt Q9WVG5 21-500 (mouse entry))
T3 chain: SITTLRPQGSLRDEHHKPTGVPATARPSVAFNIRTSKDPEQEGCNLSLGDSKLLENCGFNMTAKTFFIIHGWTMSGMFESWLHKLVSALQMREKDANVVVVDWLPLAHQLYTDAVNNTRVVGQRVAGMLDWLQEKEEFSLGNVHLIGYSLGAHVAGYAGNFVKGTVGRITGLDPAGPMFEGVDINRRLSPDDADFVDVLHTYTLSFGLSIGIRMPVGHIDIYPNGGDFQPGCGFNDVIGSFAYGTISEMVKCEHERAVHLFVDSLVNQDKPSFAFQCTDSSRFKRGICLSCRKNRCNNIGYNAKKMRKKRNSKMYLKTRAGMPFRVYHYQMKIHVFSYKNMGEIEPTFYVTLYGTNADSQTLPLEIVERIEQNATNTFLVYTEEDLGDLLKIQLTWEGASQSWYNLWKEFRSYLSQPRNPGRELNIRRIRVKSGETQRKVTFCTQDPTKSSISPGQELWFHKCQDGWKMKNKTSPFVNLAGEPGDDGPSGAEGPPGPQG

T4: rabbit EL-C2 tag (rabbit)
T4 chain: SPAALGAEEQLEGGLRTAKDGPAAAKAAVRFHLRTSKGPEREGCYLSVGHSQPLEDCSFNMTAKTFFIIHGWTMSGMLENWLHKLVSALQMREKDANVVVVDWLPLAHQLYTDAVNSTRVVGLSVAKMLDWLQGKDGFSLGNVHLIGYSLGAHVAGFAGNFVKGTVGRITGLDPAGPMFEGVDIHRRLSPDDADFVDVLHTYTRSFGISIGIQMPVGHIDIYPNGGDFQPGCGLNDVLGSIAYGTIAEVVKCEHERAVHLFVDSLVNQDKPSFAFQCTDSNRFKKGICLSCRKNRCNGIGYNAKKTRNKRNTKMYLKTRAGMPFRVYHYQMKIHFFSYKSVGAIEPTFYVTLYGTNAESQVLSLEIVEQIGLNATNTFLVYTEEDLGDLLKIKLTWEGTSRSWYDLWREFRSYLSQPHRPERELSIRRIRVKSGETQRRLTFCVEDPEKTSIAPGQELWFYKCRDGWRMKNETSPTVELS

T5: human EL-411-459 fragment (human)
T5 construct: Used as HEK293 lysate
T5 chain: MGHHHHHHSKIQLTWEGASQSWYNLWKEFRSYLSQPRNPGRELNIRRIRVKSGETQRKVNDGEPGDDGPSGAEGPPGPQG

B1: 25E4 antibody (antibody, IgG2b, V domains shown)
VH: QVALKESGPGILQPSQTLSLTCSFSGFSLSTSGMGVGWIRQPSGKGLEWLAHIWWHGNKYYSTALKSRLTISKDTSNNQVFLKIASVDTADTATYYCARISDGYPLDYWGQGTSVTVSS
VL: DIQMTQSPSSLSASLGGKVTITCKASQDINKYIVWYQQKPGKGPRLLIHYTSTLQPGFPSRFSGSGSGRDYSLSITNLEPEDIATYYCLQYDNLLWTFGGGTKLEIK
B2: 16A11 antibody (antibody, IgG1, V domains shown)
VH: QVTLKESGPGILQPSQTLSLTCSFSGFSLSTSGMGVGWVRQPSGKGLEWLAHIWWNDYYYYKTALKSRLTISKDTSNNQVFLKIASVDTVDTATYYCARMAPGTPFPSWGQGTLVTVSA
VL: B1 VL with K31R, V34A, Q38H, F58I, L73F, T76S, N93I
B3: 8F5 antibody (antibody, IgG2a, V domains shown)
VH: QVTLKESGPGILQPSQTLSLTCSFSGFSLSTSNMGVGWIRQPSGKGLEWLAHIWWNDYKYYNTALKSRLTISKDTSNNQVFLKIASLDTADTATYYCARIGGGTPLDYWGQGTSLTVSS
VL: DIQMAQSPSSLSASLGGKVTITCKASQDIHTYIAWYQHKPGKGPRLLMLYTSTLQPGIPSRFSGSGSGRDYSFSISNLEPEDIATYYCLQYDDLLWTFGGGTKLEIK
B4: 3B1 antibody (antibody, IgG1, V domains shown)
VH: QVTLKESGPGILQPSQTLSLTCSFSGFSLSTSGVGVGWIRQPSGKGLEWLAHIWWNDNKYYNTALKSRLTISKDTSNNQVFLKIASVDTADTATYFCARSYDGYPFDYWGQGTLVTVSA
VL: B1 VL with Q38H, Y50H, F58I, G64E, L73F, T76S, T85S, N93T, K107R

What was measured:
Baboon EL-C2 tag [1] = target: T1, Baboon EL-C2 tag; assay: cell-based or functional assay
[2] = target: T2, cynomolgus monkey EL-C2 tag; assay: cell-based or functional assay
[3] = target: T3, human EL[331-459]-mouse EL-C2 tag; assay: cell-based or functional assay
rabbit EL-C2 tag [4] = target: T4, rabbit EL-C2 tag; assay: cell-based or functional assay
[5] = target: T5, human EL-411-459 fragment; assay: sandwich ELISA with human EL fragment lysate, as Example 10
Baboon EL-C2 tag [6] = target: T1, Baboon EL-C2 tag; assay: ELISA-type titration, A450 against antibody concentration; protocol not described in the text
[7] = target: T2, cynomolgus monkey EL-C2 tag; assay: as above
[8] = target: T3, human EL[331-459]-mouse EL-C2 tag; assay: as above
rabbit EL-C2 tag [9] = target: T4, rabbit EL-C2 tag; assay: as above
Baboon EL-C2 tag [10] = target: T1, Baboon EL-C2 tag; assay: Biacore SPR; EL heparin extract captured by anti-C2-tag antibody on CM5, antibody as analyte, bivalent fit
Protocol: (§1) The binding affinities of anti-EL antibodies were measured using Biacore. Anti-C2-tag antibody was immobilized on a sensor chip CM5 (GE HealthCare) using amine-coupling and baboon EL heparin extract or cynomolgus monkey heparin extract diluted with HBS-P (GE Healthcare) was added and EL were captured on the sensor chip. Then anti-EL antibodies diluted with HBS-P were added and the binding affinities were calculated by bivalent fitting of BIAevaluation software (FIG. 9A-G).

[11] = target: T2, cynomolgus monkey EL-C2 tag; assay: as above
Protocol: as §1

Baboon EL-C2 tag [12] = target: T1, Baboon EL-C2 tag; assay: Biacore SPR; EL captured by anti-C2-tag antibody, antibody as analyte, bivalent fit; column head prints nM, kd/ka gives M
Protocol: as §1

[13] = target: T2, cynomolgus monkey EL-C2 tag; assay: as above
Protocol: as §1

[14] = target: T2, cynomolgus monkey EL-C2 tag; assay: ELISA-type titration, A450 against antibody concentration; protocol not described in the text
rabbit EL-C2 tag [15] = target: T4, rabbit EL-C2 tag; assay: as above
Baboon EL-C2 tag [16] = target: T1, Baboon EL-C2 tag; assay: as above
[17] = target: T2, cynomolgus monkey EL-C2 tag; assay: as above
rabbit EL-C2 tag [18] = target: T4, rabbit EL-C2 tag; assay: as above
Baboon EL-C2 tag [19] = target: T1, Baboon EL-C2 tag; assay: as above
[20] = target: T2, cynomolgus monkey EL-C2 tag; assay: as above
[21] = target: T3, human EL[331-459]-mouse EL-C2 tag; assay: as above
rabbit EL-C2 tag [22] = target: T4, rabbit EL-C2 tag; assay: as above

| Binder | Neutralizing activity_IC50 (Baboon EL-C2 tag [1]) [nM] | Neutralizing activity_IC50 [2] [nM] | Neutralizing activity_IC50 [3] [nM] | Neutralizing activity_IC50 (rabbit EL-C2 tag [4]) [nM] | binding result [5] | koff (Baboon EL-C2 tag [10]) [s⁻¹] | kon (Baboon EL-C2 tag [10]) [M⁻¹ s⁻¹] | koff [11] [s⁻¹] | kon [11] [M⁻¹ s⁻¹] | Kd (Baboon EL-C2 tag [12]) [nM] | Kd [13] [nM] | also measured |
| --- | --- | --- | --- | --- | --- | --- | --- | --- | --- | --- | --- | --- |
| B1 | 5.7 | 4.2 | 6.9 | 85 | no binding | 0.00016 | 250000 | 9.4e-05 | 160000 | 0.64 | 0.59 | EC50 (read off the curve) (Baboon EL-C2 tag [6]): ~0.02 µg/mL; EC50 (read off the curve) [7]: ~0.007 µg/mL; EC50 (read off the curve) [8]: ~0.02 µg/mL; EC50 (read off the curve) (rabbit EL-C2 tag [9]): ~0.01 µg/mL |
| B2 | 6.2 | 6.2 | 6.1 | 69 | binds | 0.00012 | 120000 | 0.00039 | 140000 | 1 | 2.8 | EC50 (read off the curve) [14]: ~0.02 µg/mL; EC50 (read off the curve) (rabbit EL-C2 tag [15]): ~0.04 µg/mL |
| B3 | 4.8 | 3 |  | 98 |  | 0.00021 | 140000 | 0.00014 | 140000 | ~1.5 | 1 | EC50 (read off the curve) (Baboon EL-C2 tag [16]): ~0.01 µg/mL; EC50 (read off the curve) [17]: ~0.005 µg/mL; EC50 (read off the curve) (rabbit EL-C2 tag [18]): ~0.01 µg/mL |
| B4 | 6.6 | 6.2 | 18 | 207 | binds | 0.00014 | 93000 | 9.9e-05 | 180000 | 1.5 | 0.55 | EC50 (read off the curve) (Baboon EL-C2 tag [19]): ~0.02 µg/mL; EC50 (read off the curve) [20]: ~0.006 µg/mL; EC50 (read off the curve) [21]: ~0.03 µg/mL; EC50 (read off the curve) (rabbit EL-C2 tag [22]): ~0.02 µg/mL |
